Reference: publication PMC3166965

Legend:
[1] = molecular target: T1, U2B" (Homo sapiens, UniProt P08579 1-225); test: filter binding
[2] = molecular target: T1, U2B"; test: filter binding; remark: listed apart in the source

T1 sequence (P08579 whole entry): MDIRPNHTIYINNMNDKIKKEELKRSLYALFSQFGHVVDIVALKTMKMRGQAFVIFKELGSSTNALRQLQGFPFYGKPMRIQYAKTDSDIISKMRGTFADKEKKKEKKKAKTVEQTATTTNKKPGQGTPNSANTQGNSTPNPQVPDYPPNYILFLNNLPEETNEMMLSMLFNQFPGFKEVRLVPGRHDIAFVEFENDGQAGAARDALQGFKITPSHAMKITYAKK

| Binder | Kd [1] [nM] | binding result [2] |
| --- | --- | --- |
| GGGCCCGGUAUUGCAGUACCUCCGGGUCC (structured_RNA) [hSLIV 9 bp stem] | 1 | – |
| GGACCUAUUGCAGUACCUGGUCC (structured_RNA) [hSLIV 6 bp stem] | 2 | – |
| GGCCGUAUUGCAGUACCGCGGCC (structured_RNA, 2-aminopurine at position 15 (loop A9), written as A) [dSLIV 2AP9] | – | binds |
| GGCCGUAUUGCAGUACCUCGGCC (structured_RNA, 2-aminopurine at position 15 (loop A9), written as A) [hSLIV 2AP9] | 2 | – |
| GGGCUGCCAUUGCACCUCGGCGGUCC (structured_RNA) [hSLII] | 2.1 | – |
| GGGCCCGGUAUUGCAGUACCGCCGGGUCC (structured_RNA) [dSLIV] | 2 | – |
